# US12194082B2, “Compositions and methods for treatment of homocystinuria” (THE REGENTS OF THE UNIVERSITY OF COLORADO, priority 2016, dated 2025)
# Several values for one entry are separate records, joined by “and”; a condition that tells them apart may be missing. Equal values may be shown once.
# Columns and labels:
# tHcy, cystathionine = test: Betaine, PEGC15S and combination treatment: transsulfuration metabolites; assay type: in vivo, HO mice
# Description: (§1) Plasma metabolites homocysteine, cystathionine and cysteine were determined by stable-isotope-dilution liquid chromatography mass spectrometry as previously described in (Allen et al., 1993, Metabolism, 42: 1448-1460). Measurements of total non-protein bound homocysteine and other aminothiols as well as of amino acids in tissue were performed as described in (Maclean et al., 2010b. Mol. Genet. Metab. 101, 153-162). Metabolites were determined by stable-isotope-dilution liquid chromatography mass spectrometry.
# The betaine and betaine+PEGC15S groups were treated with 2% betaine in the drinking water throughout the 18 days of the experiment, and the latter group was injected with 7.5 mg/kg PEGC15S on days 14 and 15. The PEGC15S single treatment group was maintained on regular water and injected on days 14 and 15 as well. […] The betaine single treatment group maintained these levels of tHcy to day 18. […] Thus, the combination of PEGC15S with betaine allows for maintaining lower tHcy levels for an extended period of time.
# [1] = Pharmacokinetics of htCBS after a single dose (plasma CBS activity); assay type: in vivo, C57BL/6J mice; settings: for observed peak plasma level: first 4 hours
# Description: The pharmacokinetic properties of a pharmacologically active substance that is administered to circulation is greatly affected by natural mechanisms of ADME. Rapid clearance of the injected molecule may greatly impact treatment efficacy and thus longer circulating half-lives are desired, which may translate into less frequent administrations or smaller doses that in turn minimize the side effects. To determine the pharmacokinetics of htCBS in plasma circulation, a single dose of 5 mg/kg was injected via subcutaneous (SC), intravenous (IV) or intraperitoneal (IP) routes to C57BL/6J mice.
# [2] = htCBS activity during in vitro incubation in mouse plasma at 37° C.; assay type: in vitro ADME, wild type or HO mice
# Description: The rapid decline in htCBS activity in vivo may be attributed to a facilitated clearance from circulation and may also be attributed to the loss of enzymatic activity of htCBS once introduced to the environment in circulation. To test the latter, htCBS was incubated in vitro in mouse plasma of wild type or HO mice at 37° C. for up to 96 hours, with activity measured every 24 hours. […] A modest 25% loss of activity was recorded after 96 hours of incubation.
# [3] = CBS enzyme activity assay, specific activity of pure enzyme; assay type: biochemical; settings: PEGylated vs non-PEGylated htCBS
# Description: CBS activity was determined by a radioisotope assay with C^14-labeled serine as a substrate. Ten μl (total 490 ng) of pure htCBS in dilution buffer (0.1 M Tris-HCl pH=8.6, 1 mM DTT, 10 μM PLP, 0.5 mg/ml BSA) or 10 μl of plasma were added to 85 μl of reaction mixture containing 0.1 M Tris-HCl pH=8.6, 10 mM L-serine, 0.5 mM PLP, 0.5 mg/ml BSA and 0.3 μCi (for pure enzyme) or 0.45 μCi (for plasma) of L-[C^14(U)]-Serine. Samples were incubated for 5 min at 37° C. and reaction was initiated by addition of 5 μl of 0.2 M Hcy (10 mM final concentration). Following 30 min of incubation at 37° C., a 20 μl aliquot of the assay mixture was applied onto a grade 3 CHR Whatman (NJ, USA) paper. Assay initiation and sampling of the resulting mixture were staggered so that each reaction time was 30 minutes. Descending paper chromatography was used to isolate the radioactive product (Cth) from a labeled substrate (Ser). The C^14-cystathionine formed in the reaction was separated from C^14-serine by an overnight descending paper chromatography in 2-propanol/formic acid/H2O (75:5.7:18.9 v/v). Radioactivity in the area of the marker cystathionine (detected by staining the marker lane with ninhydrin) was determined by cutting the chromatogram into strips that were submerged in 5 ml of Opti-fluor scintillation cocktail (PerkinElmer, MA, USA) and counted in a Beckman LS-3801 scintillation counter. An enzyme-free sample was used as a blank to monitor the background radioactivity that was then subtracted from each sample. For pure enzyme, specific activity values are expressed as enzyme units (the amount of enzyme that produces 1 μmol of cystathionine/hour) per mg of CBS, and for plasma samples as units per μl plasma.
# [4] = tested on: homocysteine, cystathionine and cysteine; test: Repeated administration of htCBS or PEGhtCBS: plasma and tissue metabolites; assay type: in vivo, HO mice; settings: 5 mg/kg, 5 consecutive days on weeks 1 and 3
# Description: as §1
# This lack of metabolic modulation by non-PEGylated htCBS further confirms the necessity to modify htCBS by covalent attachment of polyethylene glycol molecules.
# The long term effect of PEGhtCBS administration was monitored using HO mice. The PEGhtCBS enzyme was administered to 8 HO mice at a dose of 7.5 mg/kg, twice a week (Monday and Thursday) for the first two weeks, and then three times a week (Monday, Wednesday and Friday) for 6 weeks. Blood samples were collected 24 hours (Tuesday) and 72 hours (Monday) post injection (FIG. 4A-4C). […] Cystathionine and cysteine levels were positively influenced as well. […] In addition to analysis of plasma metabolites levels, liver, kidney and brain tissue samples from the injected mice were analyzed as well to determine the levels of non-protein bound homocysteine (free and disulfide-linked forms).
compound,measurement,setting,value
"C[N+](C)(C)CC(=O)O [betaine, N,N,N-trimethylglycine]",decrease in tHcy,"tHcy, cystathionine; 14 days of 2% betaine in drinking water",29% and 32%
same,cystathionine change,"tHcy, cystathionine; throughout the 18 days",did not result in an increase
htCBS: truncated recombinant human CBS (SEQ ID NO: 3) where the C-terminal regulatory region has been removed,AUC(0-t) (obs area),[1]; 5 mg/kg IP,932.4 mU-hr/μL
same,Bioavailability,[1]; 5 mg/kg IP,92%
same,E Half-life,[1]; 5 mg/kg IP,4.3 h
same,MRT (area),[1]; 5 mg/kg IP,7.9 h
same,cmax (obs),[1]; 5 mg/kg IP,75.9 Mu/μL
same,observed peak plasma level,[1]; 5 mg/kg IP,≤ 76 mU/μL
same,AUC(0-t) (obs area),[1]; 5 mg/kg IV,1011 mU-hr/μL
same,E Half-life,[1]; 5 mg/kg IV,2.7 h
same,MRT (area),[1]; 5 mg/kg IV,4.9 h
same,observed peak plasma level,[1]; 5 mg/kg IV,up to 123 mU/μL
same,AUC(0-t) (obs area),[1]; 5 mg/kg SC,500.9 mU-hr/μL
same,Bioavailability,[1]; 5 mg/kg SC,50%
same,E Half-life,[1]; 5 mg/kg SC,6.1 h
same,MRT (area),[1]; 5 mg/kg SC,9.5 h
same,cmax (obs),[1]; 5 mg/kg SC,34.5 Mu/μL
same,loss of activity in mouse plasma,[2]; after 96 hours,25%
same,loss of activity in mouse plasma,[2]; up to 72 hours,no significant loss of activity
same,Specific Activity,[3],1193
same,serum homocysteine levels,[4],no change
